From publication doi:10.1101/2023.11.17.567387 come the findings set out here.

The assay concerns the target C. elegans DPF-3 (C. elegans). Nature of the assay: cryo-EM structure.

For C. elegans DPF-3 (enzyme), the stoichiometry N – broadly, the number of molecules, sites or subunits per partner or assembly – came to 2.
